Laboratory results: PMC7367260, “Nucleosome binding by the pioneer transcription factor OCT4” (Scientific Reports, 2020)

Assays:
[1] = biological target: human histone H3.1 (human, UniProt P68431 1-136); assay: cross-linking; XL-MS: LIN28B nucleosome (4.3 µM) mixed with OCT4 at nucleosome:OCT4 = 1:4, 1 h on ice, crosslinked with 9.6 mM DSS-H12/D12 at 30 °C for 30 min; Trypsin/Lys-C digest, LC/MS-MS, xQuest/xProphet; settings: both partners purified
[2] = biological target: T1, human histone H4 (human, UniProt P62805 1-103); assay: as above; settings: both partners purified
T1 construct: histone H4, human canonical histone, wild type; Stood in the assays as part of the reconstituted LIN28B nucleosome; The H4 S47C mutant was used only for the chemical probing assay

binding result [1]: binds
binding result [2]: binds
B1: His6-tagged human OCT4 (5CS) (natural protein)
chain: MAGHLASDFAFSPPPGGGGDGPGGPEPGWVDPRTWLSFQGPPGGPGIGPGVGPGSEVWGIPPCPPPYEFCGGMAYCGPQVGVGLVPQGGLETSQPEGEAGVGVESNSDGASPEPCTVTPGAVKLEKEKLEQNPEESQDIKALQKELEQFAKLLKQKRITLGYTQADVGLTLGVLFGKVFSQTTISRFEALQLSFKNMSKLRPLLQKWVEEADNNENLQEISKAETLVQARKRKRTSIENRVRGNLENLFLQSPKPTLQQISHIAQQLGLEKDVVRVWFSNRRQKGKRSSSDYAQREDFEAAGSPFSGGPVSFPLAPGPHFGTPGYGSPHFTALYSSVPFPEGEAFPPVSVTTLGSPMHSN
notes: OCT4, human; 5CS mutant: all 5 Cys residues of the POUS·POUHD domain replaced with Ser; Expressed from pET15b in which the thrombin site was replaced with a PreScission site; no cleavage step is described, and the gel-shift methods name His6-OCT4 (5CS). pET15b would place the tag at the N-terminus (surmised); also called His6-OCT4 (5CS)
